Data as given in patent US20150018285A1 (CARMEL HAIFA UNIVERSITY ECONOMIC, published 2015).
Values belong to the binder of their own block, whether it stands above or below them.

What was measured:
[1] = target: T1, B-cell CLL/lymphoma 2 (Bcl-2) (human, UniProt P10415 1-239); assay: immunoprecipitation of transfected HeLa lysates with anti-Bcl-2 antibody, Western blot with anti-ARTS (FIG. 11A)
T1 construct: Used as endogenous Bcl-2 (HeLa, BT-549) or from a transfected Bcl-2 construct; also called Bch 2; endogenous Bcl-2
T1 sequence (P10415 whole entry): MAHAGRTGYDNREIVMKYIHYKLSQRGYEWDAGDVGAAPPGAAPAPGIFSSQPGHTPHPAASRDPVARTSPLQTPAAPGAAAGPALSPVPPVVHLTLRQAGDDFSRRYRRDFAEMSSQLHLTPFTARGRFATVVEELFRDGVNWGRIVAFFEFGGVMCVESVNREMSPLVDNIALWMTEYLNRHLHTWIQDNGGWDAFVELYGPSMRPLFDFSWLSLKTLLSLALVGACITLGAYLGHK

[2] = target: T2, X-linked inhibitor of apoptosis protein (XIAP) (human, UniProt P98170 1-497); assay: IP of the mitochondrial fraction with anti-Bcl-2 antibody, Western blot (FIG. 4E)
T2 construct: Endogenous XIAP in cell lysates; also called IAP3; BIRC
T2 sequence (P98170 whole entry): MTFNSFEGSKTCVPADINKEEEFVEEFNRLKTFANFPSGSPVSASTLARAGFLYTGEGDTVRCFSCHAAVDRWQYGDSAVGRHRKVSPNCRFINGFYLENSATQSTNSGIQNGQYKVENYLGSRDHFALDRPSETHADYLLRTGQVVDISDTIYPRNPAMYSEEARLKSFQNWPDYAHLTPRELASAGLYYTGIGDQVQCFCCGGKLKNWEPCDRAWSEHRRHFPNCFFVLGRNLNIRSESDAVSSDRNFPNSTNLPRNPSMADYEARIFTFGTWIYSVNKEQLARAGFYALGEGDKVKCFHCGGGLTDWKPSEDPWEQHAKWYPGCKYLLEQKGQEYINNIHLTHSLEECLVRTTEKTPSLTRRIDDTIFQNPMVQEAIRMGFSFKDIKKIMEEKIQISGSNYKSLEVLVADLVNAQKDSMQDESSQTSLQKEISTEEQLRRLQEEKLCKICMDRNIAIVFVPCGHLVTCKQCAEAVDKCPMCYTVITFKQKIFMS
Description: Mitochondrial fraction was immunoprecipitated using anti-Bcl-2 antibody. The precipitate was analyzed by Western blotting.

[3] = target: T3, B-cell lymphoma-extra large (Bcl-xL) (human, UniProt Q07817 1-233); assay: IP with monoclonal anti-ARTS antibody from HeLa wt lysate, Western blot (FIG. 9); binding still seen after 24 h of ABT-263
T3 construct: also called Bch xL
T3 sequence (Q07817 whole entry G70A): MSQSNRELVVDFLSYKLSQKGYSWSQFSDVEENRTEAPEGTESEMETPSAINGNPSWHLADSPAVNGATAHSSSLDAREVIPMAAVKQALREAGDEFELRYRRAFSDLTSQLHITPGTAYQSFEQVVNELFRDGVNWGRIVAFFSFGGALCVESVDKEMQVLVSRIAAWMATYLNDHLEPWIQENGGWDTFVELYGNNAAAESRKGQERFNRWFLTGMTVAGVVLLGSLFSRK

[4] = target: T2, X-linked inhibitor of apoptosis protein …; assay: IP with anti-ARTS monoclonal antibody from COS-7 cells transfected with the 6-Myc-ARTS construct; the partner is endogenous in COS-7 (FIG. 4B)
Description: FIG. 4B. […] The precipitate was analyzed by Western blotting.

- binding result [1]: no binding
B1: 128 amino acids N' terminus deletion mutated ARTS (other)
chain: MVAGESGLGKSTLVNSLFLTDLYRDRKLLGAEERIMQTVEITKHAVDIEEKGVRLRLTIVDTPGFGDAVNNTECWKPVAEYIDQQFEQYFRDESGLNRKNIQDNRVHCCLYFISPFGHGYGPSLRLLAPPGAVKGTGQEHQGQGCH

- binding result [2]: binds
- binding result [3]: binds
B2: Apoptosis Related Protein in the TGF-beta Signaling Pathway (ARTS) (other)
chain: MIKRFLEDTTDDGELSKFVKDFSGNASCHPPEAKTWASRPQVPEPRPQAPDLYDDDLEFRPPSRPQSSDNQQYFCAPAPLSPSARPRSPWGKLDPYDSSEDDKEYVGFATLPNQVHRKSVKKGFDFTLMVAGESGLGKSTLVNSLFLTDLYRDRKLLGAEERIMQTVEITKHAVDIEEKGVRLRLTIVDTPGFGDAVNNTECWKPVAEYIDQQFEQYFRDESGLNRKNIQDNRVHCCLYFISPFGHGYGPSLRLLAPPGAVKGTGQEHQGQGCH
notes: also called FL ARTS; full length ARTS

- binding result [4]: binds
B3: 6-Myc-ARTS (other)
chain: MIKRFLEDTTDDGELSKFVKDFSGNASCHPPEAKTWASRPQVPEPRPQAPDLYDDDLEFRPPSRPQSSDNQQYFCAPAPLSPSARPRSPWGKLDPYDSSEDDKEYVGFATLPNQVHRKSVKKGFDFTLMVAGESGLGKSTLVNSLFLTDLYRDRKLLGAEERIMQTVEITKHAVDIEEKGVRLRLTIVDTPGFGDAVNNTECWKPVAEYIDQQFEQYFRDESGLNRKNIQDNRVHCCLYFISPFGHGYGPSLRLLAPPGAVKGTGQEHQGQGCH
notes: Expressed by transient transfection in COS-7 cells; also called pSC2-6Myc ARTS; not shown: 6xMyc tag of pSC2-6Myc
